Patent US11370846B2, “Compositions and methods to regulate Renalase in the treatment of cancer” (Yale University, priority 2014, dated 2022)
“Also recorded” adds a separate entry of the source. Like-named read-outs stand apart in the source and are kept apart here.

What was measured:
melanoma cells = test: Melanoma cell lines in culture, viability/growth; assay type: cell-based, human
Method: FIG. 19A through FIG. 19D are a series of images and charts showing that inhibition of RNLS signaling is cytotoxic to melanoma cells in vitro. […] FIG. 19B comprises two charts depicting relative cell viability: Left panel: Cells were treated with indicated antibodies for 72 hrs and cell viability was determined using WST-1; m28-RNLS (also known as 1D-28-4), m37-RNLS (also known as 1D-37-10): monoclonal antibodies raised against RNLS peptide RP220; Right panel: A375.S2 cells treated with increasing doses of m28-RNLS for 72 hrs and cell viability determined with a WST-1 assay; n=6, * indicates p<0.05 and ** indicates p<0.005. FIG. 19C comprises representative photos of A375.S2, SkMe128, and SkMe15 after 72 hrs incubation with either control rabbit IgG or m28-RNLS. FIG. 19D is a chart depicting relative cell viability, comprising amino acid (AA) sequence of RNLS peptide antagonist (RP220A).
For additional studies, cell viability was determined using WST-1 reagent (Roche Diagnostics, Indianapolis, Ind., USA) according to the manufacturers' instruction. Absorbances were read using a microplate reader (Power Waves XS, BioTek Instruments, Winooski, Vt., USA).

A375.S2 xenograft tumors = assay type: in vivo
Method: Immunohistochemistry was performed as described previously (Guo et al., 2012 Cancer science. 103:1474-80). Briefly, tumor tissues were formalin-fixed, paraffin-embedded and cut into 5-μm sections on glass slides. The slides were de-paraffinized and hydrated, followed by antigen retrieval in a pressure cooker containing 10 mM sodium citrate, pH6 buffer. The sections were blocked in 3% hydrogen peroxide for 30 min and 2.5% normal horse serum in PBS/0.1% Tween20 for 1 h followed by incubation with primary antibody and isotype control IgG overnight at 4° C. The following antibodies were used in this study: m28-RNLS at 500 ng/ml; goat polyclonal anti-RNLS at 250 ng/ml (Abcam, ab31291); rabbit monoclonal anti-CD68 (BDBioscience, 1:100); rabbit monoclonal anti-CD163 (AbD Serotec, 1:100); rabbit monoclonal anti-CD86 (Abcam, 1:100); rabbit monoclonal anti-Ki67 (Vector Lab, VP-RM04, 1:100); rabbit monoclonal anti-p21, phspho-Tyr^705-Stat3, and total Stat3 (Cell Signaling Technologies, #2947, 1:100, #9145, 1:400, and #4904, 1:400, respectively). ImmPRESS peroxidase-anti-rabbit IgG (Vector Laboratories, Burlingame, Calif., USA) was used to detect primary antibodies. The color was developed using a Vector DAB substrate kit and counterstained with hematoxylin (Vector Laboratories). Slides were observed and photographed using an Olympus BX41 microscope and camera (Olympus America Inc, Center Valley, Pa., USA).
Female athymic, 18-20 g nude mice (nu/nu) were obtained from Charles River (Willimantic, Conn.) and housed in microisolator cages, with autoclaved bedding in a specific pathogen-free facility, with a 12-h light/dark cycle.
Xenograft tumors were established by subcutaneous injection of A375.S2 cells (2×10^6 in 100 μl of PBS, pH 7.6). When the tumors reached a volume of 50-100 mm^3, the mice were divided into a control group (n=14 treated with rabbit IgG, 40 μg by intraperitoneal injection (IP) once weekly, and 40 ug subcutaneously (SQ) around the tumor site every 3 days), and an experimental group (n=14) that received m28-RNLS (40 μg IP, once weekly, and 40 ug SQ, every 3 days). Tumor size was measured with digital calipers and volume was calculated according to the formula (length×width)×π/2.
At the end of the study, the mice were sacrificed, the tumors were excised and immediately snap-frozen in liquid nitrogen and stored at −80° C. Apoptosis was examined using the TUNEL assay (Roche in situ Apoptosis Detection System), according to the manufacturer's instructions. Sections were examined by light microscopy and the apoptosis index was determined by counting >1000 cells in 10 randomly selected high-power fields (×200 magnification).

BxPC3 xenografted tumors = test: BxPC3 pancreatic xenograft in athymic nude mice; assay type: in vivo, mouse
Method: Immunohistochemistry was performed as described previously (Guo et al., 2012 Cancer Science. 103(8):1474-80). Briefly tumor tissues were formalin-fixed, paraffin-embedded and cut into 5-μm sections on glass slides. The slides were de-paraffinized and hydrated, followed by antigen retrieval in a pressure cooker containing 10 mM sodium citrate, pH6 buffer. The sections were blocked in 3% hydrogen peroxide for 30 min and 2.5% normal horse serum in PBS/0.1% Tween20 for 1 h followed by incubation with primary antibody and isotype control IgG overnight at 4° C. […]
Xenograft tumors were established by subcutaneous injection of BxPC3 cells (2×10^6 in 100 μl of PBS, pH 7.6). […] Tumor size was measured with digital calipers and volume was calculated according to the formula (length×width)×π/2. […] These animals received no further treatments, and tumor size and volume were measured for up to 30 days.
At the end of the study, the mice were sacrificed, the tumors were excised and immediately snap-frozen in liquid nitrogen and stored at −80° C. […] Sections were examined by light microscopy and the apoptosis index was determined by counting >1000 cells in 5 randomly selected high-power fields (×200 magnification).

B1: 1D-28-4: rabbit anti-renalase monoclonal raised against peptide RP-220 (antigen 1D); heavy chain SEQ ID NO:9, light chain SEQ ID NO:10 (antibody)
heavy: METGLRWLLLVAVLKGVQCQSVEESGGRLVTPGTPLTLTCTVSGFSLSSFAVGWVRQAPGKGLEYIGIISSVGITRYASWAAGRFTISKTSTTVDLKITSPTTEDTATYFCARYGYSGDVNRLDLWGQGTLVTVSSGQPKAPSVFPLAPCCGDTPSSTVTLGCLVKGYLPEPVTVTWNSGTLTNGVRTFPSVRQSSGLYSLSSVVSVTSSSQPVTCNVAHPATNTKVDKTVAPSTCSKPTCPPPELLGGPSVFIFPPKPKDTLMISRTPEVTCVVVDVSQDDPEVQFTWYINNEQVRTARPPLREQQFNSTIRVVSTLPIAHQDWLRGKEFKCKVHNKALPAPIEKTISKARGQPLEPKVYTMGPPREELSSRSVSLTCMINGFYPSDISVEWEKNGKAEDNYKTTPAVLDSDGSYFLYSKLSVPTSEWQRGDVFTCSVMHEALHNHYTQKSISRSPGK
light: MDTRAPTQLLGLLLLWLPGATFAQVLTQTASPVSAAVGGTVTINCQASQSVYDNNNLAWYQQKPGQPPKQLIYGASTLASGVSSRFKGSGSGTQFTLTISGVQCDDAATYYCLGEFSCSSADCFAFGGGTEVVVKGDPVAPTVLIFPPSADLVATGTVTIVCVANKYFPDVTVTWEVDGTTQTTGIENSKTPQNSADCTYNLSSTLTLTSTQYNSHKEYTCKVTQGTTSVVQSFNRGDC
modifications: oryctolagus cuniculus
melanoma cell growth/viability in culture (melanoma cells): inhibits melanoma cells in culture
melanoma cell growth/viability in culture (melanoma cells; listed as m28-RNLS): decreased the viability of all (total of 5) melanoma cell lines tested
Ki67 positive cells (A375.S2 xenograft tumors; IHC of xenografted tumors): 13.4±3.0 positive cells/high power field
p21 positive cells (A375.S2 xenograft tumors; IHC of xenografted tumors): 24.2±2.4 positive cells
number of CD163+ TAMs (A375.S2 xenograft tumors; immunofluorescence of xenografts, listed as m28-RNLS): decreases CD163+TAMs
total and phosphorylated STAT3 in tumors (A375.S2 xenograft tumors; immunofluorescence, listed as m28-RNLS): marked reduction; also recorded: dramatic reduction
ratio of CD86+ to CD163+ TAMs (A375.S2 xenograft tumors; mouse, in vivo): increases the ratio
toxicity of antibody treatment (A375.S2 xenograft tumors; overall animal health and activity): did not appear to be toxic
mouse RNLS expression in tumor mass (A375.S2 xenograft tumors; qPCR, mouse specific primers): significant reduction
p-Y705-STAT3 and total STAT3 in tumors (A375.S2 xenograft tumors; western blot): significantly decreased
p21 positive cells (BxPC3 xenografted tumors; IHC): 178.1±11.4 positive cells/high power field
decrease in expression of Ki67 vs IgG (BxPC3 xenografted tumors; mouse, in vivo): 2.5 fold
